Laboratory results reported in patent US20240247080A1, “GLP1/GIP/NPY2 RECEPTOR TRIPLE AGONISTS” (Boehringer Ingelheim International GmbH, priority 2022, published 2024).
Residue numbers refer to the chain shown, from its start. Starred links: 1 amine or outer side, 2 acyl side, 3 side chain; linkers in the order of their positions; H or OH if unused. Non-standard residues stand in square brackets, D forms with d. Groups on a side chain read outwards from the residue. No end group written: not given here. *: point of attachment. C18 diacid = O=C(O)CCCCCCCCCCCCCCCCC(=O)*; γGlu = O=C(O)[C@H](CCC(=O)[*:2])N[*:1]; AEEA = NCCOCCOCC(=O)O; Aib = CC(C)(N)C(=O)O

T1: human GIP receptor (human, UniProt P48546 22-466)
T1 sequence (looked up): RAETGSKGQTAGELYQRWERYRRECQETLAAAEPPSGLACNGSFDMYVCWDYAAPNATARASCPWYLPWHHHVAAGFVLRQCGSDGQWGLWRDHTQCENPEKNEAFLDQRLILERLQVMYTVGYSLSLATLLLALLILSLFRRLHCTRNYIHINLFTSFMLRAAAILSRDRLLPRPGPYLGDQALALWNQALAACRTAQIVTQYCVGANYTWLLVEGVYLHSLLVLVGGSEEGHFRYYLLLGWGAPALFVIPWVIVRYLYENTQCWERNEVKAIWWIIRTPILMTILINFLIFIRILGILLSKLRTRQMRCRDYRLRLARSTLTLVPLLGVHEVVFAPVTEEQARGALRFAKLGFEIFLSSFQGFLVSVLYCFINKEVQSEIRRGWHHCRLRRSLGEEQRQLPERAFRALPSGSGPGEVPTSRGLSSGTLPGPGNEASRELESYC

T2: human neuropeptide Y2 (NPY2) receptor (human, UniProt P49146 1-381)
T2 sequence (looked up): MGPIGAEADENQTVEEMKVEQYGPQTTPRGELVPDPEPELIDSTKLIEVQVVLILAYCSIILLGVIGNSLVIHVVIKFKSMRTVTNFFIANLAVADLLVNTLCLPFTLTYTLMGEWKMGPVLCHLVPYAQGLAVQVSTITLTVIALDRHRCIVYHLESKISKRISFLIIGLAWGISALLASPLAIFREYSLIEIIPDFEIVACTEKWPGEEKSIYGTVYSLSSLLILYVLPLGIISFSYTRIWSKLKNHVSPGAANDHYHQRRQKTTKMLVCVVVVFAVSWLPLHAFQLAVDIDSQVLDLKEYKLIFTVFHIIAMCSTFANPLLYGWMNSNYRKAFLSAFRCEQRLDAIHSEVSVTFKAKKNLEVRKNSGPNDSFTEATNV

T3: GIP receptor (human (printed as hGIPR), UniProt P48546 22-466)
T3 sequence (looked up): T1 sequence (looked up)

T4: NPY2 receptor (human (printed as hNPY2R), UniProt P49146 1-381)
T4 sequence (looked up): T2 sequence (looked up)

B1: Compound 22 (peptide)
peptide: YXEGTFTSDYSIXLEKQAQXAFVQWLIKGGQSSYASLRHYYNWLTRQRY
modifications: Aib at 2, 13, 20; K28 side chain: C20DA-gGlu-gGlu-gGlu-gGlu-gGlu-Glu-eLys; C-terminal NH2
B2: Compound 27 (peptide)
peptide: B1 peptide with Q24E, Q31P, Y34G, A35V, L37I
modifications: Aib at 2, 13, 20; K28 side chain: C20DA-gGlu-gGlu-gGlu-gGlu-gGlu-gGlu-eLys; C-terminal NH2
B3: Compound 21 (peptide)
peptide: B1 peptide with Q24E, Q31P, Y34G
modifications: Aib at 2, 13, 20; DHis 39; DArg 46; DTyr 49; K28 side chain: C20DA-gGlu-gGlu-gGlu-gGlu-gGlu-gGlu-eLys; C-terminal NH2
B4: Compound 19 (peptide)
peptide: B1 peptide with Q31P, S33Y, A35V
modifications: Aib at 2, 13, 20; K28 side chain: C20DA-gGlu-gGlu-gGlu-gGlu-gGlu-gGlu-eLys; C-terminal NH2
B5: Compound 257 (peptide)
peptide: B1 peptide with Q31P, S33E, Y34G
modifications: Aib at 2, 13, 20; K28 side chain carries C18DA-E-E-E-E-E (SEQ ID NO: 636); C-terminal amide
B6: Compound 253 (peptide)
peptide: B1 peptide with Q24E, Q31P, Y34G
modifications: Aib at 2, 13, 20; K28 side chain carries C18DA-gGlu-gGlu-gGlu-gGlu-gGlu; C-terminal amide
B7: Compound 255 (peptide)
peptide: B1 peptide with A21E, Q24E, Q31P, S33E, Y34G
modifications: Aib at 2, 13, 20; K28 side chain carries C18DA-gGlu-gGlu-gGlu-gGlu-gGlu-gGlu-eLys; C-terminal amide

Molecular target: human GLP-1 receptor (human, UniProt P43220 24-463)
Assay: cell-based or functional assay

EC50, CreLuc assay, 0.5% hP [nM] | EC50, CreLuc assay, 100% hP [nM] | Binder
0.45 | 15.9 | B1
0.1 | 1.97 | B2
0.11 | 1.66 | B3
0.5 | 10.2 | B4

Molecular target: T1, human GIP receptor
Assay: cell-based or functional assay

EC50, CreLuc assay, 0.5% hP [nM] | EC50, CreLuc assay, 100% hP [nM] | Binder
0.54 | 6.62 | B1
0.17 | 1.11 | B2
0.14 | 0.87 | B3
0.61 | 6.5 | B4

Molecular target: T2, human neuropeptide Y2 (NPY2) receptor
Assay: cell-based or functional assay

EC50, CreLuc assay, 0.5% hP [nM] | EC50, CreLuc assay, 100% hP [nM] | Binder
8.06 | 21.3 | B1
7.16 | 21 | B2
> 99.9 | > 999 | B3
9.41 | 19.3 | B4

Molecular target: GLP-1 receptor (human (printed as hGLP1R), UniProt P43220 24-463)
Assay: cell-based or functional assay

EC50 hGLP1R 0.5% hP (CreLuc) [nM] | EC50 hGLP1R 100% hP (CreLuc) [nM] | Binder
0.17 | 2.52 | Y[Aib]EGTFTSDYSI[Aib]LEKQAQ[Aib]AFIEWLIKGGPSEGASLRHYYNWLTRQRY-NH2 (not fully specified (residue 28); also: TFA salt) [Compound 258]
0.1 | 2.59 | Y[Aib]EGTFTSDYSI[Aib]LEKQAQ[Aib]AFVQWLIK([γGlu-γGlu-γGlu-γGlu-γGlu-γGlu-C18 diacid])GGPSEGASLRHYYNWLTRQRY-NH2 (also: TFA salt) [Compound 252]
0.18 | 4.59 | Y[Aib]EGTFTSDYSI[Aib]LEKQAQ[Aib]AFVEWLIK([AEEA-AEEA-γGlu-γGlu-γGlu-γGlu-C18 diacid])GGPSEPASLRHYYNWLTRQRY-NH2 (also: TFA salt) [Compound 256]
0.07 | 1.69 | Y[Aib]EGTFTSDYSI[Aib]LEKQAQ[Aib]AFVEWLIK([AEEA-AEEA-γGlu-γGlu-γGlu-γGlu-C18 diacid])GGPSSGASLRHYYNWLTRQRY-NH2 (also: TFA salt) [Compound 254]
0.08 | 2.48 | B5
0.08 | 0.74 | B6
0.34 | 7.31 | B7

Molecular target: T3, GIP receptor
Assay: cell-based or functional assay

EC50 hGIPR 0.5% hP (CreLuc) [nM] | EC50 hGIPR 100% hP (CreLuc) [nM] | Binder
0.16 | 1.23 | Y[Aib]EGTFTSDYSI[Aib]LEKQAQ[Aib]AFIEWLIKGGPSEGASLRHYYNWLTRQRY-NH2 (not fully specified (residue 28); also: TFA salt) [Compound 258]
0.29 | 1.25 | Y[Aib]EGTFTSDYSI[Aib]LEKQAQ[Aib]AFVQWLIK([γGlu-γGlu-γGlu-γGlu-γGlu-γGlu-C18 diacid])GGPSEGASLRHYYNWLTRQRY-NH2 (also: TFA salt) [Compound 252]
0.23 | 1.56 | Y[Aib]EGTFTSDYSI[Aib]LEKQAQ[Aib]AFVEWLIK([AEEA-AEEA-γGlu-γGlu-γGlu-γGlu-C18 diacid])GGPSEPASLRHYYNWLTRQRY-NH2 (also: TFA salt) [Compound 256]
0.22 | 0.63 | Y[Aib]EGTFTSDYSI[Aib]LEKQAQ[Aib]AFVEWLIK([AEEA-AEEA-γGlu-γGlu-γGlu-γGlu-C18 diacid])GGPSSGASLRHYYNWLTRQRY-NH2 (also: TFA salt) [Compound 254]
0.14 | 1.48 | B5
0.24 | 0.64 | B6
0.46 | 1.23 | B7

Molecular target: T4, NPY2 receptor
Assay: cell-based or functional assay

EC50 hNPY2R 0.5% hP (CreLuc) [nM] | EC50 hNPY2R 100% hP (CreLuc) [nM] | Binder
22.3 | 72 | Y[Aib]EGTFTSDYSI[Aib]LEKQAQ[Aib]AFIEWLIKGGPSEGASLRHYYNWLTRQRY-NH2 (not fully specified (residue 28); also: TFA salt) [Compound 258]
14.5 | 33.5 | Y[Aib]EGTFTSDYSI[Aib]LEKQAQ[Aib]AFVQWLIK([γGlu-γGlu-γGlu-γGlu-γGlu-γGlu-C18 diacid])GGPSEGASLRHYYNWLTRQRY-NH2 (also: TFA salt) [Compound 252]
10.9 | 27 | Y[Aib]EGTFTSDYSI[Aib]LEKQAQ[Aib]AFVEWLIK([AEEA-AEEA-γGlu-γGlu-γGlu-γGlu-C18 diacid])GGPSEPASLRHYYNWLTRQRY-NH2 (also: TFA salt) [Compound 256]
17.8 | 30.9 | Y[Aib]EGTFTSDYSI[Aib]LEKQAQ[Aib]AFVEWLIK([AEEA-AEEA-γGlu-γGlu-γGlu-γGlu-C18 diacid])GGPSSGASLRHYYNWLTRQRY-NH2 (also: TFA salt) [Compound 254]
16.9 | 96.3 | B5
13.4 | 39.3 | B6
17.3 | 40.9 | B7
